In patent US20240287172A1 (SCIRHOM, published 2024):
Changes are numbered by the printed parent chain.

B1: antibody 50 (antibody, V domains shown)
VH: QVQLQQSGAELVRPGASVKVSCKASGYAFSNYLIEWVKQRPGQGLEWIGVINPGSGFTKYNEKFKGKATLTADKSSSTAYMQLSSLTSEDSAVYFCARGLYRAMDYWGQGTSVTVSS
VL: DIQMTQSPASQSASLGESVTITCLASQTIGTWLAWYQQKPGKSPQLLIYAAASLADGVPSRFSGGGSGTKFSFKISSLQAEDFVNYYCQQIYSTPYTFGGGTKLEIK
notes: mouse IgG, kappa light chain; also called clone #50; purified antibody 50
B2: antibody 34 (antibody, V domains shown)
VH: QVTLKESGPGILQPSQTLSLTCSFSGFSLSTFSLGVGWIRQSSGKGLEWLAHIWWDDEKYYNPALKSRLTISKDTSKNQVFLKIANVDAADTATYYCARAYYSKSYYALDYWGQGTSVTVSS
VL: DIQMTQSPSSLSASLGERVSLTCRASQEISGYLSWLQQKPDGTIKRLIYAASTLDSGVPKRFSGSRSGSDYSLAISSLESEDFADYYCLQYANFPFTFGSGTKLEIK
notes: mouse IgG, kappa light chain; also called clone #34; purified antibody 34

Assays:
hiR2-FL-V524A-T7 = target: T1, hiR2-FL-V524A-T7 (human, UniProt Q6PJF5 1-856); experiment: FACS on MEF-DKO cells expressing the variant, 3 µg/ml antibody
T1 sequence: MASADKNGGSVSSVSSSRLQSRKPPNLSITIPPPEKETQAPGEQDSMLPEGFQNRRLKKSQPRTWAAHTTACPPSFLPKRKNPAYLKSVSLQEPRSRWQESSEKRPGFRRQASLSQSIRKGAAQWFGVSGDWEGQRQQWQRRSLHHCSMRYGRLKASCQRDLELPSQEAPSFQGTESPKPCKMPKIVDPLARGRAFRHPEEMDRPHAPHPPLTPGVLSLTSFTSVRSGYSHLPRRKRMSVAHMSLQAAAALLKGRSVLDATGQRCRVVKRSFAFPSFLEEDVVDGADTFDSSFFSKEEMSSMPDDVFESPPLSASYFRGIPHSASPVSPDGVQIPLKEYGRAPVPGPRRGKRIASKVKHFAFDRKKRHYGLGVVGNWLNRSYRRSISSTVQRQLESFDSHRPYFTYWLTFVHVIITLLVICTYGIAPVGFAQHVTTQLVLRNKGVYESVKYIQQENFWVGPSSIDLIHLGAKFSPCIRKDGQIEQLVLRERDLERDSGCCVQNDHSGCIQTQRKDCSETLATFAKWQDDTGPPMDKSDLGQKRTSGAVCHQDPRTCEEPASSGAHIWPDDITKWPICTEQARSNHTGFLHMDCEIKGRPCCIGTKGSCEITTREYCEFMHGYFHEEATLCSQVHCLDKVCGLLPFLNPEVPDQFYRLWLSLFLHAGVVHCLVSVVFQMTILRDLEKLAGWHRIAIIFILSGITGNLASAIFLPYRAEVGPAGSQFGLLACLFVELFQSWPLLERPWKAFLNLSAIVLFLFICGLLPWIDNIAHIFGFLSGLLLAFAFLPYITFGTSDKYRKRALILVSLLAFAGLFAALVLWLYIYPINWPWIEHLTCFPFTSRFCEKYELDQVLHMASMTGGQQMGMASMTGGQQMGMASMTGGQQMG
Procedure, shortened: (§1)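 Two incubations on ice, each 1 hour: test antibody (3 μg/ml) or FACS buffer only, then PE anti-mouse F(ab′)2 at 1:100 in the dark. Centrifugation and washes used 4° C; staining quantified on a flow cytometer.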

hiR2-FL-P533A-T7 = target: T2, hiR2-FL-P533A-T7 (human, UniProt Q6PJF5 1-856); experiment: as above
T2 sequence: T1 sequence with A524V, P533A
Procedure, shortened: as §1

| Binder | loss of binding vs wild type (hiR2-FL-V524A-T7) | loss of binding vs wild type (hiR2-FL-P533A-T7) |
| --- | --- | --- |
| B1 | ≥ 30% | – |
| B2 | – | ≥ 30% |
